Reference: patent publication US11629364B2, “Methods for synthesizing anticoagulant polysaccharides” (OPTIMVIA, LLC, priority 2019, dated 2023)
Values belong to the molecule of their own block, whether it stands above or below them.

Legend:
[1] = 3OST activity: 3-O sulfated products detected by LCMS after lyase digestion; format: biochemical; conditions: for abundance of 3-O sulfation in product: relative to the commercial heparin standard; for 3OST activity: N,2,3,6-HS products by MS and/or NMR: procedures of Example 5 and/or Example 6, expected
Procedure: A study was conducted in accordance with embodiments of the present disclosure to confirm 3OST activity of enzymes comprising the amino acid sequence of SEQ ID NO: 24, SEQ ID NO: 26, or SEQ ID NO: 28 by detecting the presence of 3-O sulfated polysaccharide products as a result of their sulfotransfer reaction, using a reaction, using a similar LCMS procedure as in Example 3, except that the sulfo acceptor polysaccharide was commercially-available heparin (CAS code: 9041-08-1, available from Millipore Sigma). Even though the unmodified heparin contains ˜3.5% (w/w) of 3-O sulfated glucosamine residues, about ˜60% of the glucosamine residues are N,6-sulfated and are adjacent to a 2-O sulfated hexuronic acid residue, as in Formula X. Consequently, these N,6-sulfated glucosamine residues can still be 3-O sulfated.

[2] = NST activity: N-sulfated products detected by SAX-HPLC after lyase digestion; format: biochemical; conditions: procedures of Example 2; expected
Procedure: A study was conducted in accordance with embodiments of the present disclosure to confirm NST activity of enzymes comprising the amino acid sequence of SEQ ID NO: 2, SEQ ID NO: 4, SEQ ID NO: 6, SEQ ID NO: 8, SEQ ID NO: 10, or SEQ ID NO: 12 by detecting the presence of N-sulfated polysaccharide products formed as a result of their sulfotransfer reaction, using mass spectrometry (MS). Each engineered enzyme was purified according to the procedure of Example 1. Sulfotransferase activity was monitored in 100 μL reactions containing 50 μM of enzyme. To each purified protein solution, 20 mg of an aryl sulfate compound (either PNS or NCS) was dissolved in 2 mL of reaction buffer (50 mM IVIES pH 7.0, 2 mM CaCl2)), added to the protein solution, and incubated at 37° C. for 10 min. 2.5 mL of 2 mg/mL solution of N-deacetylated heparosan was added to protein/donor solution and incubated overnight at 37° C. The N-deacetylated heparosan was synthesized according to the protocol described in Balagurunathan, K. et al (eds.) (2015), Glycosaminoglycans: Chemistry and Biology, Methods in Molecular Biology, vol. 1229, DOI 10.1007/978-1-4939-1714-3_2, ©Springer Science+Business Media, New York, pp. 11-19 (section 3.1). To purify the N-sulfated product, the incubated reaction mixture was centrifuged the following day at 5,000×g for 10 min. The filter was washed once with 2 mL water, and centrifuged again. The filtrate was added to a 1K MWCO Dialysis membrane, dialyzed for 2 days in Milli-Q water, with water changes at 1 h, 2 h, 8 h, 16 h, 32 h, and then lyophilized.
The lyophilized N-sulfated products from each reaction were subsequently digested with a mixture of three carbon-oxygen lyases comprising the amino acid sequences of SEQ ID NO: 30, SEQ ID NO: 31, and SEQ ID NO: 32, which catalyze the β-eliminative cleavage of heparosan-based polysaccharides. Such lyases are available from New England Biolabs, among other chemical and biological commercial entities. 1 μL of each lyase was incubated with 50 μg of the lyophilized sulfated polysaccharide product and the provided digestion buffer, and incubated over 24 hours according to the packaged instructions provided by New England Biolabs with each lyase. After digestion, the lyase enzymes were inactivated by heating to 100° C. for 5 minutes. Samples were centrifuged at 14,000 rpm for 30 minutes before introduction to a strong anion exchange, high performance liquid chromatography (SAX) analysis. SAX analysis was performed on a Dionex Ultimate 3000 LC system interface. Separation was carried out on a 4.6×250 mm Waters Spherisorb analytical column with 5.0 μm particle size at 45° C. Mobile phase solution A was 2.5 mM sodium phosphate, pH 3.5, while mobile phase solution B was 2.5 mM sodium phosphate, pH 3.5, and 1.2 M Sodium perchlorate. After each sample was loaded onto the column, mobile phase solutions were applied to the column at a ratio of 98% mobile phase solution A and 2% mobile phase solution B for five minutes at a flow rate of 1.4 mL/min. After five minutes, a linear gradient of increasing mobile phase solution B was applied until the ratio of mobile phase solution A to mobile phase solution B was 50:50.

3OST activity with PNS ([1]; PNS as aryl sulfate compound): not active
abundance of 3-O sulfation in product [1]: higher abundance of 3-O sulfation
B1: SEQ ID NO: 28: engineered aryl sulfate-dependent 3OST enzyme, mutant of isoform 1 of the human 3OST enzyme (protein)
chain: MGTASNGSTQQLPQTIIIGVGHGGTRALLEMLSLHPDVAAAENEVHFFDWEEHYSQGLGWYLTQMPFSSPHQLTVEKTHSYFTSPKVPERIHSMNPTIRLLLILRDPSERVLSLGTHLLYVHLQKHKPYPPIEDLLMRDGRLNLDYTGLNRSLYHAHMLNWLRFFPLGHIHIVDGDRLIRDPFPEIQKVERFLKLSPQINASNFYFNKTKGFYCLRDSGKDRCLHESKGRAHPQVDPKLLDKLHEYFHEPNKKFFKLVGRTFDWH
modifications: Amino acid sequence encoding for engineered arylsulfate-dependent 3-O-sulfotransferase variant 3
notes: engineered aryl sulfate-dependent 3OST enzyme, mutant of isoform 1 of the human 3OST enzyme

abundance of 3-O sulfation in product [1]: higher abundance of 3-O sulfation
B2: SEQ ID NO: 24: engineered aryl sulfate-dependent 3OST enzyme, mutant of isoform 1 of the human 3OST enzyme (protein)
chain: MGTASNGSTQQLPQTIIIGVGHGGTRALLEMLSLHPDVAAAENEVHFFDWEEHYSQGLGWYLTQMPFSSPHQLTVEKTHSYFTSPKVPERIHSMNPTIRLLLILRDPSERVLSAYTHMLYNHLQKHKPYPPIEDLLMRDGRLNLDYVGLNRSLYHAHMLNWLRFFPLGHIHIVDGDRLIRDPFPEIQKVERFLKLSPQINASNFYFNKTKGFYCLRDSGKDRCLHESKGRAHPQVDPKLLDKLHEYFHEPNKKFFKLVGRTFDWH
modifications: Amino acid sequence encoding for engineered arylsulfate-dependent 3-O-sulfotransferase variant 1
notes: as for B1

B3: SEQ ID NO: 39: mutant of N-sulfotransferase domain of pig NDST carrying the SEQ ID NO: 10 mutations (protein)
chain: MSEEKDPLWQDPCEDKRHKDIWSKEKTCDRFPKLLIIGPHKTGVHALYLFLGLHPDLSSNYPSSETGNHIGFFGGHNYHKGIDWYMDFFPIPSNTTSDFYFEKSAWYFDSDVAPRRAAALLPKAKVLTILINPADRAYSWYQHQRAHDDPAALRYTFHEVITAGPDASLKLRALQNRCLVPGWYATHLERWLGAFHANQILVLDGKLLRTEPARVMDTVQKFLGVTNTIDYHKTLAFDPKKGFWCQLLEGGKTKCLGRSVGRKYPDMDPDSRAFLRDYYRDHNIELSKLLYKMGQTLPTWLREELQNTR
modifications: Amino acid sequence encoding for engineered arylsulfate-dependent N-sulfotransferase variant 13
NST activity: N-sulfated products by SAX [2]: confirm the presence of N-sulfated polysaccharide products

B4: SEQ ID NO: 52: mutant of isoform 1 of the pig 3OST enzyme, SEQ ID NO: 24 mutations (protein)
chain: MGVAPNGSAQQLPQTIIIGVGHGGTRALLEMLSLHPDVAAAENEVHFFDWEEHYSHGLGWYLSQMPFSWPHQLTVEKTHSYFTSPKVPERVYSMNPSIRLLLILRDPSERVLSLGTHLFYVHMQKHKPYPSIEEFLVRDGRLNVDYTGLNRSLYHVHMQNWLRFFPLRHIHIVDGDRLIRDPFPEIQKVERFLKLSPQINASNFYFNKTKGFYCLRDSGRDRCLHESKGRAHPQVDPKLLNKLHEYFHEPNKKFFELVGRTFDWH
modifications: Amino acid sequence encoding for engineered arylsulfate-dependent 3-O-sulfotransferase variant 5
3OST activity: N,2,3,6-HS products by MS and/or NMR [1]: confirm the presence of N,2,3,6-HS products

B5: SEQ ID NO: 53: mutant of isoform 1 of the pig 3OST enzyme, SEQ ID NO: 26 mutations (protein)
chain: MGVAPNGSAQQLPQTIIIGVGHGGTRALLEMLSLHPDVAAAENEVHFFDWEEHYSHGLGWYLSQMPFSWPHQLTVEKTHSYFTSPKVPERVYSMNPSIRLLLILRDPSERVLSAYTHMFYNHMQKHKPYPSIEEFLVRDGRLNVDYTGLNRSLYHVHMQNWLRFFPLRHIHIVDGDRLIRDPFPEIQKVERFLKLSPQINASNFYFNKTKGFYCLRDSGRDRCLHESKGRAHPQVDPKLLNKLHEYFHEPNKKFFELVGRTFDWH
modifications: Amino acid sequence encoding for engineered arylsulfate-dependent 3-O-sulfotransferase variant 6
3OST activity: N,2,3,6-HS products by MS and/or NMR [1]: confirm the presence of N,2,3,6-HS products

B6: SEQ ID NO: 40: mutant of N-sulfotransferase domain of pig NDST carrying the SEQ ID NO: 12 mutations (protein)
chain: MSEEKDPLWQDPCEDKRHKDIWSKEKTCDRFPKLLIIGPAKTGAWLLHHFLGLHPDLSSNYPSSETHSSIQFFNGHNYHKGIDWYMDFFPIPSNTTSDFYFETSANYFDSDVAPRRAAALLPKAKVLTILINPADRAYSWYQHQRAHDDPAALRYTFHEVITAGPDASLKLRALQNRCLVPGWYATHLERWLGAFHANQILVLDGKLLRTEPARVMDTVQKFLGVTNTIDYHKTLAFDPKKGFWCQLLEGGKTKCAHRGLGRKYPDMDPDSRAFLRDYYRDHNIELSKLLYKMGQTLPTWLREELQNTR
modifications: Amino acid sequence encoding for engineered arylsulfate-dependent N-sulfotransferase variant 14
NST activity: N-sulfated products by SAX [2]: confirm the presence of N-sulfated polysaccharide products

B7: SEQ ID NO: 38: mutant of N-sulfotransferase domain of pig NDST carrying the SEQ ID NO: 8 mutations (protein)
chain: MSEEKDPLWQDPCEDKRHKDIWSKEKTCDRFPKLLIIGPHGTGGHALYLFLGLHPDLSSNYPSSETFLSIQFFNGHNYHKGIDWYMDFFPIPSNTTSDFYFEHSGNYFDSDVAPRRAAALLPKAKVLTILINPADRAYRAYVWQRAHDDPAALRYTFHEVITAGPDASLKLRALQNRCLVPGWYATHLERWLGAFHANQILVLDGKLLRTEPARVMDTVQKFLGVTNTIDYHKTLAFDPKKGFWCQLLEGGKTKCLGRSLGSKYPDMDPDSRAFLRDYYRDHNIELSKLLYKMGQTLPTWLREELQNTR
modifications: Amino acid sequence encoding for engineered arylsulfate-dependent N-sulfotransferase variant 12
NST activity: N-sulfated products by SAX [2]: confirm the presence of N-sulfated polysaccharide products

B8: SEQ ID NO: 37: mutant of N-sulfotransferase domain of pig NDST carrying the SEQ ID NO: 6 mutations (protein)
chain: MSEEKDPLWQDPCEDKRHKDIWSKEKTCDRFPKLLIIGPHHTGGHALYLFLGLHPDLSSNYPSSETGEEIQFFNGHNYHKGIDWYMDFFPIPSNTTSDFYFEKSANYFDSDVAPRRAAALLPKAKVLTILINPADRAYSWYQAQRAHDDPAALRYTFHEVITAGPDASLKLRALQNRCLVPGWYATHLERWLGAFHANQILVLDGKLLRTEPARVMDTVQKFLGVTNTIDYHKTLAFDPKKGFWCQLLEGGKTKCGGRHLGRKYPDMDPDSRAFLRDYYRDHNIELSKLLYKMGQTLPTWLREELQNTR
modifications: Amino acid sequence encoding for engineered arylsulfate-dependent N-sulfotransferase variant 11
NST activity: N-sulfated products by SAX [2]: confirm the presence of N-sulfated polysaccharide products
